From patent publication US20150031601A1 come the findings set out here.

The experiment deals with serum proteins. Briefly: 90% serum, 30 kDa ultrafiltration, HPLC.
Regarding GFCWYVCVKRNGARKCHRRCN [SEQ ID NO: 454], the Protein binding (%) was determined as 90%.
The molecule GFCWYVCVYRNGVRGCYRRCN [SEQ ID NO: 38] had a Protein binding (%) of 93%.
The figure for RFCWNVCVYRNGVRVCHRHCN [SEQ ID NO: 359] is 80%; for GFCWYVCVYRNGSRVCYRRCN [SEQ ID NO: 36] it is 60%.
GFCWYVCVYRNGVRVCYRRCT [SEQ ID NO: 54] gave a Protein binding (%) of 99%.
In turn, GFCWRACVYRNGVRACYRRCN [SEQ ID NO: 319] came in with a Protein binding (%) of 40%.
In the case of GFCWYVCVYRNGVRVCNRRCN [SEQ ID NO: 48] it was 68%; in that of GFCWYACAKRNGLRVCYRRCN [SEQ ID NO: 450], 98%.
In turn, GFCWHVCSKRNGLRVCYRRCN [SEQ ID NO: 396] gave a Protein binding (%) of 92%.
The figure for GFCARVCAKRNGVRVCYRRCN [SEQ ID NO: 363] is 80%.
The figure for GFCAHVCVKRNGARVCYRRCN [SEQ ID NO: 362] is 76%; for GFCWYVCVYRNGARVCYRRCN [SEQ ID NO: 29] it is 99%.
In the case of GFCFYVCVYRNGVRVCRRRCN [SEQ ID NO: 56] it was 94%; in that of GFCGRVCVYRNGVRVCYRRCN [SEQ ID NO: 61], 72%; in that of GFCWRVCSYRNGVRKCYRRCN [SEQ ID NO: 331], 95%.
GFCGRVCVYKNGKRACYRRCN [SEQ ID NO: 493] yielded a Protein binding (%) of 77%.
The figure for GFCWRVCHYRNGVRVCYRRCN [SEQ ID NO: 74] is 99%; for GFCWKVCARRNGARSCYRRCN [SEQ ID NO: 504] it is 95%; for GFCWRVCASRNGLRVCYRRCN [SEQ ID NO: 435] it is 85%.
In the case of GFCGHVCVYRNGVRVCYRRCN [SEQ ID NO: 60], the Protein binding (%) amounted to 64%.
The figure for GFCWYTCVKRNGLRVCYRRCN [SEQ ID NO: 346] is 86%; for GFCWYVCVYRNGVRVCHRRCN [SEQ ID NO: 46] it is 88%.
The figure for GFCWYVCVYRNGVRVCYRRCS [SEQ ID NO: 53] is 99%; for GFCWYVCARRNGLRSCYRRCN [SEQ ID NO: 453] it is 92%.
In the case of GFCWRVCVYSNGKRSCHRRCN [SEQ ID NO: 509] it was 87%; in that of GFCFRSCVRRNGVRVCYRRCN [SEQ ID NO: 377], 65%; in that of GFCWRVCVRRNGVRVCHRRCN [SEQ ID NO: 335], 95%.
As for GFCWKVCVYRNGVRVCSRRCN [SEQ ID NO: 68], the Protein binding (%) amounted to 87%.
The figure for GFCWYACVYRNGKRACYRRCN [SEQ ID NO: 340] is 98%; for GFCWRACAYRNGKRVCYRRCN [SEQ ID NO: 417] it is 95%.
The molecule GFCWNACARRNGVRVCYRRCN [SEQ ID NO: 407] registered a Protein binding (%) of 88%.
In the case of GFCGRVCVYRNGKRACYRRCN [SEQ ID NO: 386] it was 81%; in that of GFCWYVCVYRNGVRNCYRRCN [SEQ ID NO: 41], 97%; in that of GFCWHVCARRNGARVCYRRCN [SEQ ID NO: 394], 80%.
For GFCWNVCVYRNGVRVCHRRCN [NZ17074 (the antimicrobial peptide of SEQ ID NO: 70)], the Protein binding (%) was 79%.
For the molecule GFCFRVCVKRNGVRKCYRRCN [SEQ ID NO: 381], the Protein binding (%) stood at 98%.
The figure for GFCWYACAYRNGVRACYRRCN [SEQ ID NO: 343] is 74%; for GFCWYVCSYRNGVRVCYRRCN [SEQ ID NO: 24] it is 85%; for GFCWRVCVYRNGVRSCHRRCN [SEQ ID NO: 316] it is 90%.
In the case of GFCWYVCVYRNGVRHCYRRCN [SEQ ID NO: 39] it was 98%.
In the case of GFCWRVCAYKNGKRSCYRRCN [SEQ ID NO: 523] it was 90%; in that of GFCWRVCHYRNSVRVCYRRCN [SEQ ID NO: 327], 98%.
The molecule GFCWYVCVYRNGVRTCYRRCN [SEQ ID NO: 45] yielded a Protein binding (%) of 98%.
In turn, GFCWYVCVYRNGVRVCYRRCN [antimicrobial peptide of SEQ ID NO: 2 (the parent antimicrobial peptide)] came in with a Protein binding (%) of 99.5%.
The figure for GFCWYVCHYRNGVRVCYRRCN [SEQ ID NO: 23] is 98%.
The molecule GFCWYVCVYRNGGRVCYRRCN [SEQ ID NO: 30] came in with a Protein binding (%) of 99%.
In the case of GFCWRVCHYSNGKRVCYRRCN [SEQ ID NO: 439] it was 92%; in that of GFCAYVCVYRNGVRVCYRRCN [SEQ ID NO: 4], 89%.
Molecule GFCWYVCVYRNGVRQCYRRCN [SEQ ID NO: 42] had a Protein binding (%) of 96%.
The figure for GFCWYVCVYRNGVRVCKRRCN [SEQ ID NO: 47] is 89%; for GACWYVCVYRNGVRVCYRRCN [SEQ ID NO: 3] it is 86%.
The figure for GFCWRACVYRNGVRVCYRRCN [SEQ ID NO: 72] is 97%; for GFCWRACVYRNGVRSCYRRCN [SEQ ID NO: 320] it is 88%; for GFCWYVCVYRNGVRSCYRRCN [SEQ ID NO: 44] it is 85%.
The figure for GFCWNVCAYRNGKRACYRRCN [SEQ ID NO: 411] is 86%; for GFCWYVCVYRNGPRVCYRRCN [SEQ ID NO: 33] it is 99%.
GFCWRVCAYSNGKRVCYRRCN [SEQ ID NO: 425] gave a Protein binding (%) of 69%.
The figure for GFCWYVCYYRNGVRVCYRRCN [SEQ ID NO: 25] is 98%; for GFCWYVCVRRNGVRVCYRRCN [SEQ ID NO: 28] it is 92%; for GFCWHVCVYKNGKRSCYRRCN [SEQ ID NO: 390] it is 87%.
As for GFCWYVCAYRNGVRVCYRRCN [SEQ ID NO: 21], the Protein binding (%) is 98.5%.
In the case of GFCWRACAYRNGVRACYRRCN [SEQ ID NO: 418] it was 92%.
